Data reported in patent US20240301062A1.

Assays:
[1] = molecular target: human claudin 9 (CLDN9) (human) (UniProt O95484); assay: flow cytometry, CHOK1/human CLDN9-GFP cells
[2] = molecular target: mouse CLDN6 (mouse) (UniProt Q9Z262); assay: flow cytometry, CHOK1/mouse CLDN6-GFP cells
[3] = molecular target: human claudin 6 (CLDN6) (human) (UniProt P56747); assay: flow cytometry, CHOK1/human CLDN6-GFP cells
[4] = molecular target: cyno CLDN6 (cyno); assay: flow cytometry, CHOK1/Cyno CLDN6-GFP cells
[5] = molecular target: human claudin 6 (CLDN6) (human) (UniProt P56747); assay: flow cytometry, PA-1 cells (endogenous CLDN6)

Chain of human claudin 6 (CLDN6) (human) (P56747 whole entry): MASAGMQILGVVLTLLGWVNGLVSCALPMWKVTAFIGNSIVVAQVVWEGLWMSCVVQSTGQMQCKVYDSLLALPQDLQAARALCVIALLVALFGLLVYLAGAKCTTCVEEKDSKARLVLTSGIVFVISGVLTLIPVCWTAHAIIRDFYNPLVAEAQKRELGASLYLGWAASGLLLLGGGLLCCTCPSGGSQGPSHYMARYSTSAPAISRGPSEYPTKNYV
Chain of human claudin 9 (CLDN9) (human) (O95484 whole entry): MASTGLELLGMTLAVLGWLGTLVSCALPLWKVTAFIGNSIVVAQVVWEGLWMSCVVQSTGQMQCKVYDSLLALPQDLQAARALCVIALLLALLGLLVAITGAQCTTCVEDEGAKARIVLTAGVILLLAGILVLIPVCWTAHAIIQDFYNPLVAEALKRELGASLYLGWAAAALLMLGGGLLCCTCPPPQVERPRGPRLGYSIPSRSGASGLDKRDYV
Chain of mouse CLDN6 (mouse) (Q9Z262 whole entry): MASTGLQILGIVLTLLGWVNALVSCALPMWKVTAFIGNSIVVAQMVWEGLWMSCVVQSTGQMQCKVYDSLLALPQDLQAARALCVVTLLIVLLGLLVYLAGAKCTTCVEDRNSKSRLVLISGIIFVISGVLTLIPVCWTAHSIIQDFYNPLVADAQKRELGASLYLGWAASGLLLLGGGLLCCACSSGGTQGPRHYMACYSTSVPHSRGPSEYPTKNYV

- Emax (MFI) [1]: 26.9 MFI
- Emax (MFI) [2]: 41.8 MFI
- Emax (MFI) [3]: 31.1 MFI
- Emax (MFI) [4]: 225 MFI
- Emax (MFI) [5]: 34 MFI
Substance: Human IgG1 isotype Ctrl. (antibody)
